Measurements: US5316947A, “Synthetic isohirudins with improved stability” (Hoechst Aktiengesellschaft, priority 1991, dated 1994)
Substitutions are numbered along the chain they refer to.

B1: [Ala^1 Thr^2,Glu^33,Ala^54 ] desulfatohirudin (protein)
chain: ATYTDCTESGQNLCLCEGSNVCGQGNKCILGSEGEKNQCVTGEGTPKPQSHNDADFEEIPEEYLQ
modifications: ends and bridges not checked
B2: [Ala^1,Thr^2,Glu^33,Gln^52,Glu^53,Ala^54 ]-desulfatohirudin (protein)
chain: B1 chain with N52Q, D53E
modifications: ends and bridges not checked
B3: [Ala^1,Thr^2,Glu^53 ] desulfatohirudin (protein)
chain: B1 chain with E33D, D53E, A54G
modifications: ends and bridges not checked
B4: [Ala^1,Thr^2,Ala^54 ] desulfatohirudin (protein)
chain: B1 chain with E33D
modifications: ends and bridges not checked
B5: [Ala^1,Thr^2,Glu^33 ] desulfatohirudin (protein)
chain: B1 chain with A54G
modifications: ends and bridges not checked
B6: [Ala^1,Thr^2,Gln^52,Glu^53,Glu^55 ] desulfatohirudin (protein)
chain: B1 chain with E33D, N52Q, D53E, A54G, D55E
modifications: ends and bridges not checked
B7: [Ala^1,Thr^2,Gln^52,Glu^53,Ala^54 ] desulfatohirudin (protein)
chain: B1 chain with E33D, N52Q, D53E
modifications: ends and bridges not checked
B8: [Ala^1,Thr^2,Glu^33,Gln^52,Glu^53,Glu^55 ]-desulfatohirudin (protein)
chain: B1 chain with N52Q, D53E, A54G, D55E
modifications: ends and bridges not checked

Assays:
thrombin = thrombin (Homo sapiens, UniProt P00734); experiment: Comparative Ki value determination on optimized isohirudins (method of Stone and Hofsteenge, chromogenic substrate D-HHT-Gly-Arg-pNA); assay type: biochemical; conditions: 25° C., pH 8.3, 0.1 M tris, 0.2 M NaCl, 0.1% Triton X-100; Ki = koff/kon; read-out: Ki(app.)
Protocol: Ki values were determined by the method of Stone and Hofsteenge (Biochemistry 25, pages 4622-4628, 1986): 0.2 ml of a 1.25 mM solution of D-HHT-Gly-Arg-pNA was equilibrated at 25° C. with 1.7 ml of 0.1 M tris, 0.2 M NaCl and 0.1% (v/v) Triton X-100 pH 8.3 and 0.1 ml of the isohirudin to be tested in 145 mM NaCl. Binding was started by adding 0.05 ml of thrombin solution. The absorption at 405 nm was recorded for a period of 10-20 min.
The reaction follows the equation:
[P]=vs *t+(vo -v5)(1-e^-k*t)/k+d,
[P]=product concentration (nitroaniline) […]
vs =reaction rate in the equilibrium state
The rate constant k was determined by non-linear regression. Extrapolation of k at various inhibitor concentrations to [1]=0 according to […]
yields the rate constants kon and koff and thus Ki =koff /kon.

[1] = 20-hour stability of [Ala1,Thr2] desulfatohirudin analogs at pH 7 and 60° C. (RP HPLC and anion exchange chromatography); assay type: physicochemical; conditions: stress conditions: 20 h, 0.5 mg/ml in 20 mM NaP, 300 mM NaCl
Protocol: The compound to be tested was dissolved in 0.5 mg/ml in 20 mM NaP, pH 7, 300 mM NaCl and incubated at 60° C. for 20 h. Samples were taken at times t=0 and t=20 h and analyzed by RP HPLC (Nucleosil®) and anionic exchange chromatography (Mono Q®). The content of newly formed byproducts was calculated.

[2] = Time course of byproduct formation of desulfatohirudin analogs at pH 6.5 and pH 4, 60° C. (FIG. 4 and FIG. 3); assay type: physicochemical; conditions: 1 mg/ml in water, pH 4 (FIG. 3) and pH 6.5 (FIG. 4), up to 96 h
Protocol: The purified isohirudins, as lyophilisate, were dissolved at 1 mg/ml in water and adjusted to pH 6.5 with 1 M […]. After sterilization by filtration, […]. Samples were taken at times t=0, 5, 24, 48, 72 and 96 h and analyzed by RP HPLC (Nucleosil®) and ion exchange chromatography (Mono®) for the content of byproducts therein. The purity at time t=x is shown relative to the purity at t=0, with in each case the less favorable value from the two analysis systems being used as bases (FIG. 4).
The purified isohirudins, as lyophilisate, were dissolved at 1 mg/ml in water and adjusted to pH 4 with 1 M acetic acid. Incubation and analyses were carried out as in Example 10 (FIG. 3).

Row | Molecule | Ki (thrombin) [nM] | % newly formed byproducts [1] [%] | Stability (byproduct formation over time) [2]
1 | [Ala^1,Thr^2 ] desulfatohirudin [reference compound] | 0.2 | 23.0 | 
2 | [Ala^1,Thr^2,Glu^33,Glu^53 ] desulfatohirudin | 0.37 |  | simple exchange of the aspartic acid does not have the optimal effect
3 | [Ile^1,Thr^2 ] desulfatohirudin [reference compound] | 0.61 |  | 
4 | [Leu^1,Thr^2 ] desulfatohirudin [reference compound] | 0.14 |  | 
5 | B1 | 0.35 |  | 
6 | B2 | 0.31 |  | superior stability
7 | B3 | 0.38 |  | 
8 | B4 | 0.27 |  | 
9 | B5 | 0.16 | 15.2 | 
10 | B6 | 0.19 | 14.6 | 
11 | B7 | 0.22 |  | 
12 | B8 | 0.3 | 3.2 | superior stability
